What was measured:
[1] = target: T1, human CD40 (CD40-transfected HEK293T cells) (Homo sapiens, UniProt P25942); assay: Monovalent VHH binding to CD40-transfected HEK293T cells, Myc-tag flow cytometry; conditions: for binding to CD40-expressing cells: detection of the Myc tag, FIG. 1B; for average geometric mean fluorescence intensity (Myc-tag): CD40-transfected HEK293T cells, 2 experiments
T1 construct: expressed in transfected cells; host or cells: HEK293T
Protocol: The embryonic kidney cell line HEK293T, either wildtype (WT) or transfected with human CD40, was grown in Dulbecco's Modified Eagle Medium (41965-039, Thermo Fisher Scientific, Waltham, Mass., USA), supplemented with 10% fetal calf serum (F7524, Merck, Kenilworth, N.J., USA), 200 mM L-glutamine (25030-123, Thermo Fisher Scientific), 0.05 mM β-mercapto-ethanol (M6250, Merck) and 10,000 U/mL penicillin/streptomycin (15140-122, Thermo Fisher Scientific), hereafter referred to as complete DMEM.
CD40 expression on CD40-transfected cells was confirmed by incubation with a PE-conjugated anti-CD40 antibody (IM1936U, Beckman Coulter, Brea, Calif., USA) for 20 minutes at 4° C. […] Bound VHH was detected by sequential incubation with mouse-anti-Myc tag (05-274, Merck) and AF488-conjugated goat-anti-mouse (A-11001, Thermo Fisher Scientific) antibodies for 20 minutes at 4° C.
Samples were measured on a FACSCanto cytometer (BD Biosciences, Franklin Lakes, N.J., USA) and analyzed with Flowjo MacV10.

primary CLL cells = assay: Monovalent VHH binding to primary CLL cells, flow cytometry; set-up: species or system human; conditions: n=5 samples; FIG. 2B
Excerpt: Peripheral blood (PB) mononuclear cells (PBMCs, ≥95% CD5^+CD19^+) were isolated from PB samples from untreated CLL patients and cryopreserved as described previously (Hallaert et al. (2008), Blood 112(13):5141-9). The study was approved by the medical ethics committee at the Amsterdam UMC. Written informed consent from all subjects was obtained. Thawed cells were kept in Iscove's Modified Dulbecco's Medium (IMDM; 12440-053, Thermo Fisher Scientific), supplemented with 10% fetal calf serum (F7524, Merck), 200 mM L-glutamine (25030-123, Thermo Fisher Scientific), 0.05 mM β-mercapto-ethanol (M6250, Merck) and 10.000 U/mL penicillin/streptomycin (15140-122, Thermo Fisher Scientific), hereafter referred to as complete IMDM.
CD40 expression on primary CLL cells was confirmed and VHH binding was tested as described in Example 2.

CD40 [2] = target: T2, CD40 (Homo sapiens, UniProt P25942); assay: CD40 agonistic activity in primary CLL cells, 48 h, flow cytometry; type: cell-based; conditions: various concentrations, FIG. 3A-C
T2 construct: Primary chronic lymphocytic leukemia (CLL) cells express CD40 on the cell surface; endogenous in cells; host or cells: primary CLL PBMCs from untreated CLL patients
T2 sequence (P25942 21-277): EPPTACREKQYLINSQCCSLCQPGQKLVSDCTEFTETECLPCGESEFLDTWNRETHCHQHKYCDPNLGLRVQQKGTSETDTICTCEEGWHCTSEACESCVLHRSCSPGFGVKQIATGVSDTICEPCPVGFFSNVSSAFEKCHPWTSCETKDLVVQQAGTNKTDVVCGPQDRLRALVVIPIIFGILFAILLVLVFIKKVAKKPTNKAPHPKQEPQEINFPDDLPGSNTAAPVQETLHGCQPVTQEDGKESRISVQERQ
Protocol: PBMCs (≥90% CD5^+CD19^+) from untreated CLL patients were obtained and cryopreserved as described in Example 3. Thawed cells were kept in complete IMDM.
To assess whether binding of the VHH to CD40 has agonistic effects, primary CLL PBMCs were cultured for 48 hours in the presence of VHH, medium control or recombinant multimeric CD40 ligand (rmCD40L; 100 ng/mL, Bioconnect).
After 48 hours, cells were harvested, washed and incubated with AF700-conjugated anti-CD19 (557921), FITC-conjugated anti-CD80 (6109965), APC-conjugated anti-CD86 (555660, all BD Biosciences), PE-conjugated anti-CD5 (12-0059-42, Thermo Fisher Scientific) and PECy7-conjugated anti-CD95 (305621, Biolegend, San Diego, Calif., USA) antibodies for 20 minutes at 4° C. Alternatively, after 48 hours, cells were harvested and viability was measured using Mitotracker Orange (25-minute incubation at 37° C.) and To-pro-3 (10-minute incubation at room temperature; both Thermo Fisher Scientific). Samples were measured on a FACSCanto cytometer (BD Biosciences) and analyzed with Flowjo MacV10.
To assess whether binding of the VHH has agonistic effects, primary CLL PBMCs were cultured with the indicated concentrations of V19S76K-5C8, medium control or rmCD40L for 48 hours and analyzed by flow cytometry as described in Example 4.

CD40 [3] = target: T2, CD40; assay: CD40 antagonistic activity in primary CLL cells: pre-incubation, then rmCD40L for 48 h; type: cell-based; conditions: 30 min pre-incubation, then rmCD40L 100 ng/mL for 48 hours; FIG. 4A-C
Protocol: PBMCs (≥90% CD5^+CD19^+) from untreated CLL patients were obtained and cryopreserved as described in […]. Thawed cells were kept in complete IMDM.
To test whether the VHH antagonizes CD40 stimulation, primary CLL PBMCs were pre-incubated with VHH or medium control for 30 minutes at 37° C. and subsequently cultured for 48 hours in the presence of rmCD40L (100 ng/mL).
After 48 hours, cells were analyzed by flow cytometry as described in Example 4.
To assess whether binding of the VHH has antagonistic effects, primary CLL PBMCs were pre-incubated with V19S76K-5C8 or medium control and then cultured with rmCD40L for 48 hours and analyzed by flow cytometry as described in Example 5.

human CD40 [4] = target: T3, human CD40 (human, UniProt P25942 21-277); assay: flow cytometry on CD40+ CII cells, anti-llama IgG detection, non-linear regression
T3 construct: In the assays it stood on CD40-transfected HEK293T cells, primary CLL cells or the CLL-derived CII cell line; also called tumor necrosis factor receptor superfamily member 5; TNR5_HUMAN
T3 sequence (P25942 21-277 limits assumed): as the sequence (P25942 21-277) above
Protocol: (§1) FIG. 6: V19S76K-5C8 binds to CD40⁺ and Vγ9Vδ2+ cells. Cell lines were incubated with V19S76K-5C8 or medium control and bound bsVHH was detected using anti-llama IgG heavy and light chain antibodies by flow cytometry. (A) Bar plots and (B) non-linear regression analysis of V19S76K-5C8 binding to healthy donor-derived Vγ9Vδ2-T cell lines (n=3). (C) Bar plots and (D) non-linear regression analysis of V19S76K-5C8 binding to […] CD40⁺ CII cell line (n=3). […] (A, C: repeated-measures one-way ANOVA followed by Dunnett's post hoc test compared to condition without bsVHH; B, D: non-linear regression analysis).

human CD40 [5] = target: T3, human CD40; assay: flow cytometry, CD40+ CII cell line (n=3), non-linear regression curve
Protocol: as §1

[6] = target: human Vγ9Vδ2 T cell receptor (human) (UniProt Q99603); assay: flow cytometry, healthy donor-derived Vγ9Vδ2-T cell lines (n=3), non-linear regression curve
[7] = target: human Vγ9Vδ2 T cell receptor (human) (UniProt Q99603); assay: flow cytometry on healthy donor-derived Vγ9Vδ2-T cell lines, anti-llama IgG detection, non-linear regression

T1 sequence (P25942 21-277): as above

Row | binding to CD40-expressing cells [1] | Kd (human CD40 [4]) [nM] | EC50 (read off the curve) (human CD40 [5]) [nM] | EC50 (read off the curve) [6] [nM] | Kd [7] [nM] | average geometric mean fluorescence intensity (Myc-tag) ([1]; VHH concentration 1 pM) | average geometric mean fluorescence intensity (Myc-tag) ([1]; VHH concentration 10 pM) | average geometric mean fluorescence intensity (Myc-tag) ([1]; VHH concentration 100 pM) | average geometric mean fluorescence intensity (Myc-tag) ([1]; VHH concentration 1 nM) | average geometric mean fluorescence intensity (Myc-tag) ([1]; VHH concentration 10 nM) | average geometric mean fluorescence intensity (Myc-tag) ([1]; VHH concentration 100 nM) | Molecule | binding to primary CLL cells (primary CLL cells) | CD40 stimulation (viability, CD86 and CD95 expression) (CD40 [2]) | prevention of CD40L-induced CD40 stimulation (viability, CD86 and CD95 expression) (CD40 [3])
1 | bound to the CD40-expressing cells | – | – | – | – | – | – | – | – | – | – | V15t: monovalent anti-CD40 VHH V15 with C-terminal Myc- and His6-tag, SEQ ID NO:16 (protein, antibody sequence) VHH: EVQLQESGGGLVQAGGSLRLSCVTSGSAFSSDTMGWFRQAPGKQRELVASISSRGVREYADSVKGRFTISRDNAKNTVYLQMNSLQPEDTAVYYCNRGALGLPGYRPYNNWGQGTQVTVSSGLEGHSDHMEQKLISEEDLNRISDHHHHHH | higher binding intensity than V12t | did not induce any of these effects | prevented CD40 stimulation in a dose-dependent manner
2 | – | 10.9 | ~10 | 1 | 1.2 | – | – | – | – | – | – | V19S76K-5C8 (bispecific antibody, also called bispecific anti-CD40-anti-Vγ9Vδ2 TCR VHH V19S76K-5C8; bsVHH) QVQLQESGGGLVQAGGSLRLSCAASGRTFGRSAMGWFRQAPGKEREFVAAIGTRGGSTKYADSVKGRFTISTDNAKNTVYLQMDSLKPEDTAVYRCAVRGPGYPSAAIFQDEYHYWGQGTQVTVSSGGGGSEVQLVESGGGLVQAGGSLRLSCAASGRPFSNYAMGWFRQAPGKEREFVAAISWSGGSTSYADSVKGRFTISRDNAKNTVYLQMNSPKPEDTAIYYCAAQFSGADYGFGRLGIRGYEYDYWGQGTQVTVSS | – | – | –
3 | bound to the CD40-expressing cells | – | – | – | – | 5031 | 4938 | 5538 | 6783 | 9101 | 16175 | V19t: monovalent anti-CD40 VHH V19 with C-terminal Myc- and His6-tag, SEQ ID NO:15 (protein, antibody sequence) VHH: QVQLQESGGGLVQAGGSLRLSCAASGRTFGRSAMGWFRQAPGKEREFVAAIGTRGGSTKYADSVKGRFTISTDNASNTVYLQMDSLKPEDTAVYRCAVRGPGYPSAAIFQDEYHYWGQGTQVTVSSGLEGHSDHMEQKLISEEDLNRISDHHHHHH | higher binding intensity than V12t | did not induce any of these effects | prevented CD40 stimulation in a dose-dependent manner
